The values that follow come from US20250297026A1 (PETMEDIX, published 2025).

Substitutions are numbered along the chain they refer to.

The chains are these.
T1: canine CD20 (canine, UniProt Q3C2E2 1-297)
T1 chain: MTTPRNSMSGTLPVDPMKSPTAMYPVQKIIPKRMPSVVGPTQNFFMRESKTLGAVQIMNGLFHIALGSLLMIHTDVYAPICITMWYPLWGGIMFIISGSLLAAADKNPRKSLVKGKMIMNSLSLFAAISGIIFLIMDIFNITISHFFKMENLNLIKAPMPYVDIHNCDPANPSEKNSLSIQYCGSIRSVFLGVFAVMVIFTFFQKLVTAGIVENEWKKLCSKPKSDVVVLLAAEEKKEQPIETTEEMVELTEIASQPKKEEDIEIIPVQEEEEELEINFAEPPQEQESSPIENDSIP

B1: PMX066 (antibody, V domains shown)
VH: AVQLVESGGDLVKPGGSLRLSCVASGITFSRYHMSWVRQAPGKGLQWVAYINSGGSATSYTDAVKGRFSISRDNGKNTLYLQMNSLRVEDSAVYYCTTLDLWGQGTLVTVSS
VL: SYVLTQLPSKNVTLKQPAHITCGGDNIGSKSVHWYQQKLGQAPVLIIYYDSRRPTGIPERFSGANSGNTATLTINGALAEDEADYYCQMWDSSANVFGGGTHLTVL
B2: PMX074 (antibody, V domains shown)
VH: EVQLVESGGDLVKPGGSLRLSCVASGFTFSRYYMTWVRQAPGKGLQWVAYINSDRRSTTYADAVKGRFTISRDNAKNTLYLQMNSLRAEDTAVYYCTTLEYWGQGTLVTVSS
VL: B1 VL with M89V
B3: PMX069 (antibody, V domains shown)
VH: EMQLVESGGALVKPGGSLRLSCVASGFTFRRYHMSWVRQAPGQGLQWVAYIDSDGSPTSYGDSVKGRFTISRDNAKNTLFLQMNSLRVDDTAVYYCTTLDYWGRGTLVTVSS
VL: B1 VL with L7V, S29G, V44L, S51T, N75S, G76R, M89V, A94G, L106I
B4: PMX078 (antibody, V domains shown)
VH: EVQLVESGGDLVKPGGSLRLSCVASGLTFSRYHMSWIRQAPGKGLQWVAYISSGGSSTNYAGSVKGRFTVSRDNAKNTLYLQMNSLRAEDTAVYYCTSLDYWGQGTLVTVSS
VL: B1 VL with N75S, M89V, A94D
B5: PMX080 (antibody, V domains shown)
VH: B4 VH with H33Y, S35N, I37V, S52D, S57P, G62D, S63A, V70I, T97S, L99F
VL: B1 VL with L4V, K10N, N11T, N75S, M89V
B6: PMX067 (antibody, V domains shown)
VH: EIQLVESGGDLVKPGGSLRLSCVASGFTFSRYHMSWVRQAPGKGLQWVAYINTGGSNTNYADAVKGRFTISRDNAKNTLYLQMNSLRAEDTAVYYCTTLDSWGQGTLVTVSS
VL: B1 VL with S9F, N75S, M89V, A94V
B7: PMX075 (antibody, V domains shown)
VH: EVQLVESGGDLVKPGGSLRLSCVASGITFSRYHMSWVRQAPGKGLQWVAFINTGRSSTNYADAVAGRFTISRDNAKNTLYLQMNGLTVEDTAVYYCSTLDYWGQGTLVTVSS
VL: B1 VL with N11S, V44I, S51N, R52N, N75S, Q88H, M89V, A94V
B8: PMX072 (antibody, V domains shown)
VH: B7 VH with I27F, G85S, T87R, V88A
VL: B1 VL with R52S, N75S, M89V
B9: PMX071 (antibody, V domains shown)
VH: EVHLVESGGDLVKPGGSLRLSCVASGITFNRYYMNWVRQTPGKGLQWVAYIDSGGSPTTYADAVKGRFTISRDNAKNTLYLQMNSLRAEDTAVYYCTSFDYWGQGTLVTVSS
VL: B1 VL with V44I, S51T, R52S, N75S, M89V
B10: PMX076 (antibody, V domains shown)
VH: B9 VH with H3Q, N30S, T40A, N77K, T78A
VL: B1 VL with R52S, N75S, Y86F, M89V
B11: PMX081 (antibody, V domains shown)
VH: EVQLVQSGGDLVKPGGSLRLSCVASGYTFTRYHMSWVRQAPGKGLQWVAFINSDGTGITYGDAVKGRFTISRDNAKNTLYLQMNSLRAEDTAIYYCTTFDSWGQGTLVTVSS
VL: B1 VL with V44I, N75S, M89V, A94G
B12: PMX079 (antibody, V domains shown)
VH: B6 VH with I2V, F27L, Y50F, T53S, G55R, N57D, N59T, L99F, S101Y
VL: B1 VL with V44A, R52S, N75S, M89V
B13: PMX073 (antibody, V domains shown)
VH: B9 VH with H3Q, I27F, N30S, T40A, Y50F, D52T, P57S, T59S, A61G
VL: B1 VL with D50A, R52S, N75S, M89V
B14: PMX077 (antibody, V domains shown)
VH: B9 VH with H3Q, N30S, T40A, D52N
VL: B1 VL with V44I, S51T, R52S, N75S, M89V
B15: PMX001 mAb (antibody, V domains shown)
VH: B6 VH with I2V, R31S, T53S, N57S, N59T, N77K, T97S, L99F, S101Y
VL: SYVLTQLPSRNVTLKQPAHITCGGDNIGSKSVHWYQQKLGQAPVLIIYYDTRRPTGIPERFSGANSGNTATLTISGALAEDEADYYCQVWDSSGNVFGGGTHLTVLG
notes: Fully canine mAb; Expressed in CHO cells
B16: PMX002 mAb (antibody, V domains shown)
VH: EVQLVESGGDLVKPGGSLRLSCVASGIIFSNYHMSWVRQVPGKGLQWVAYINSGGSTINYADGVKGRFTISRDNAKNSLYLQMNSLRGEDTAVYYCTTYDSWGQGTLVTVSS
VL: B15 VL with R10K, T51S, R52S, G94V
notes: Fully canine mAb with dog IGGB and dog IGLC5 constant regions; Expressed in CHO cells
B17: PMX004 mAb (antibody, V domains shown)
VH: EVQLVESGGELVKPGGSLRVSCVASGITFSRYHMSWVRQAPGKGLQWVAFINTDRSSPKYADSVKGRFTISRDNAKNTLYLQMNSLRAEDTAIYYCTSFDYWGQGTLVTVSS
VL: B15 VL with R10K, T51S, R52S, G94A
notes: as for B16
B18: PMX005 mAb (antibody, V domains shown)
VH: B6 VH with I2V, T53S, N57D, T58S, N59D, T98S, S101Y
VL: B15 VL with R10K, T51S, R52S, S92R
notes: as for B16

In one experiment the target is T1, canine CD20. Kind of experiment: cell-based or functional assay.
For the molecule B1, the “ADCC EC50” value was 0.15 nM, the “ADCC Maximum killing (%)” value is 47%, the “CDC EC50” value amounted to 12.1 nM and the “CDC Maximum killing (%)” value was 98.5%.

As to B2, the “ADCC EC50” value was found to be 0.12 nM, the “ADCC Maximum killing (%)” value worked out at 51%, the “CDC EC50” value turned out to be 6.8 nM and the “CDC Maximum killing (%)” value is 98.9%.

Turning to B3, the “ADCC EC50” value worked out at 0.09 nM, the “ADCC Maximum killing (%)” value came out at 38%, the “CDC EC50” value was 7.6 nM and the “CDC Maximum killing (%)” value is 98.2%.

As for B4, the “ADCC EC50” value amounted to 0.22 nM, the “ADCC Maximum killing (%)” value was 40%, the “CDC EC50” value stood at 9.08 nM and the “CDC Maximum killing (%)” value was determined as 98.8%.

Regarding B5, the “ADCC EC50” value came out at 0.13 nM, the “ADCC Maximum killing (%)” value amounted to 50%, the “CDC EC50” value was 21.9 nM and the “CDC Maximum killing (%)” value came out at 96.2%.

As to B6, the “ADCC EC50” value was determined as 0.13 nM, the “ADCC Maximum killing (%)” value came to 50%, the “CDC EC50” value stood at 11.3 nM and the “CDC Maximum killing (%)” value turned out to be 97.8%.

For B7, the “ADCC EC50” value came to 0.14 nM, the “ADCC Maximum killing (%)” value was 46%, the “CDC EC50” value is 6.02 nM and the “CDC Maximum killing (%)” value is 98.9%.

Take B8: the “ADCC EC50” value was 0.18 nM, the “ADCC Maximum killing (%)” value is 50%, the “CDC EC50” value came to 19.6 nM and the “CDC Maximum killing (%)” value was 91.6%.

With B9, the “ADCC EC50” value turned out to be 0.15 nM, the “ADCC Maximum killing (%)” value was 41%, the “CDC EC50” value came out at 28.9 nM and the “CDC Maximum killing (%)” value turned out to be 94.3%.

For B10, the “ADCC EC50” value amounted to 0.14 nM, the “ADCC Maximum killing (%)” value amounted to 49%, the “CDC EC50” value came to 7.76 nM and the “CDC Maximum killing (%)” value amounted to 98.3%.

In the case of B11, the “ADCC EC50” value is 0.16 nM, the “ADCC Maximum killing (%)” value turned out to be 51%, the “CDC EC50” value came to 10.6 nM and the “CDC Maximum killing (%)” value was 98.5%.

For the molecule B12, the “ADCC EC50” value worked out at 0.12 nM, the “ADCC Maximum killing (%)” value stood at 52%, the “CDC EC50” value was found to be 16.4 nM and the “CDC Maximum killing (%)” value was 96.7%.

As for B13, the “ADCC EC50” value came out at 0.21 nM, the “ADCC Maximum killing (%)” value was found to be 48%, the “CDC EC50” value worked out at 11.1 nM and the “CDC Maximum killing (%)” value was determined as 96.3%.

For B14, the “ADCC EC50” value was determined as 0.13 nM, the “ADCC Maximum killing (%)” value worked out at 42%, the “CDC EC50” value was determined as 9.84 nM and the “CDC Maximum killing (%)” value came out at 98.7%.

In a further experiment the target is T1, canine CD20. Put plainly: flow cytometry on cCD20-expressing MDCK II cells, 10 ug/ml antibody, FITC anti-canine IgG (FIG. 3A). Here is the method:
FIG. 3. Binding assessment of anti-canine CD20 mAbs using flow cytometry. PMX001, PMX002, PMX003, PMX004, PMX005, 1 E4-cIGGB, 4E1-7-clGGB (see A) and PMX006, PMX007, PMX008, PMX009, PMX010, PMX011 (see B) and PMX003, PMX066, PMX067, PMX069, PMX070, PMX071, PMX072, PMX073, PMX074, PMX075, PMX076, PMX077, PMX078, PMX079, PMX080, PMX081, 1E4-cIGGB, 4E1-7-clGGB (see C) were applied to cCD20-expressing MDCK II cells at 10 μg/ml. Rituximab-clGGB (grey shadow) was used as the isotype control and presented in each plot. (D) Affinity determination of PMX003, PMX115 and PMX070 mAbs. Binding of 1:2 serially diluted antibodies to cCD20-expressing MDCK II cells was assessed in a binding assay and the mean values of the fluorophore signal was determined. The plot of mean fluorescence intensity (MFI) versus concentration was used to determine EC50 of binding, using non-linear regression, which is the apparent Kd of antibody binding to cell surface expressed canine CD20.
HEK293 cells or MDCK II cells were stably transfected with a vector encoding the full length of canine CD20 cDNA. Binding of antibodies to these cells were assessed using flow cytometry. […] Cells incubated with anti-canine IgG FITC secondary antibody and without primary anti-canine CD20 antibody, or with isotype control primary antibody, were used as negative controls. The data were acquired on either a Beckman Coulter CytoFLEX or a BD Accuri C6 Plus flow cytometer and analysed using FlowJo software. […] Graphs using mean fluorescence intensity (MFI) values of the FITC channel vs concentration of antibody were plotted in GraphPad Prism (FIG. 3D).
On the technique in general: Flow cytometry measures light scatter and fluorescence of single cells or particles in a stream.
Consider B15, for which the binding result is “binds”.

Consider B16, for which the binding result was “binds”.

For the molecule B17, the binding result was “binds”.

On to B18, for which the binding result is “binds”.
